Results from the supplement of paper PMC10567573.

B1: PLK2 (parent)
chain: YAELGQCSVFPATDAPEQFISQVT

Variants of: B1
Assay: protein stability index of a GFP-peptide fusion (GPS, HEK-293T) (PSI 1-6); higher = more stable
Settings: c terminus: a fixed tail appended
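Further: lentivirally expressed fusions sorted by FACS into six bins by GFP to DsRed ratio, PSI derived from sequencing read proportions per bin multiplied by bin number.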

Variant	protein stability index
A12G	2.39
A12D	2.81
A12C	1.87
A12H	1.93
A12W	2.14
A12Y	1.95
A12S	2.1
A12L	1.66
A12V	2.1
A12E	3.42
A12F	2.18
A12K	2.13
A12N	2.33
A12P	2.47
A12M	1.72
A12T	2.22
A12R	1.63
A12I	2.07
A12Q	2.6
P16T	2.05
P16C	2.04
P16N	2.35
P16M	1.91
P16R	1.84

Variant	protein stability index
P16I	1.74
P16E	2.66
P16Y	1.79
P16V	1.66
P16Q	2.44
P16L	1.84
P16A	1.8
P16F	1.64
P16K	1.87
P16G	1.89
P16D	2.53
P16H	1.58
P16W	2.84
P16S	2.33
P11R	2.21
P11M	2.62
P11Y	2.31
P11T	3.65
P11S	2.56
P11I	3.28
P11F	3.39
P11V	2.33
P11N	2.2
P11W	2.82

Variant	protein stability index
P11Q	1.91
P11H	2.32
P11A	2.14
P11L	2.03
P11E	1.33
P11G	3.1
P11D	1.64
P11K	2.68
L4A	2.33
L4Q	3.62
L4S	2.86
L4P	3.04
L4I	2.5
L4H	3.25
L4D	3.96
L4M	2.11
L4N	3.09
L4G	3.51
L4R	1.99
L4V	2.9
L4C	2.43
L4E	4.42
L4Y	2.06
L4K	2.62

Variant	protein stability index
L4F	2.5
L4T	3.05
L4W	3.19
E17Q	2.9
E17F	2.18
E17P	2.12
E17Y	2.64
E17I	1.75
E17V	1.78
E17H	1.86
E17T	2.6
E17G	2.15
E17S	2.06
E17K	2.32
E17C	1.79
E17A	1.92
E17L	2.33
E17W	3.35
E17N	1.95
E17R	1.62
E17M	1.6
F10P	3.58
F10D	4.2
F10L	3.27

Variant	protein stability index
F10T	3.47
F10Q	3.46
F10S	3.61
F10N	3.43
F10K	3.26
F10A	3.34
F10G	3.27
F10Y	2.4
F10W	2.96
F10R	3.18
F10H	3.43
F10I	2.87
F10C	3.07
F10M	3.06
F10E	3.68
F10V	3.52
A15Q	2.17
A15F	1.98
A15T	2.19
A15P	2.47
A15V	2.22
A15E	2.6
A15W	2.29
A15D	2.27

Variant	protein stability index
A15Y	2.13
A15M	2.18
A15R	2.21
A15K	2.29
A15H	2.58
A15N	2.33
A15C	2
A15I	1.96
A15G	2.38
A15S	1.83
A15L	2.31
Y1T	3.99
Y1S	4.09
Y1W	2.84
Y1V	3.56
A2C	1.92
A2H	2.57
A2P	3.42
A2F	2.32
A2T	2.25
A2W	2.5
A2K	3.47
A2Y	2.43
A2D	4.09

Variant	protein stability index
A2Q	2.79
A2E	4.46
A2G	3.29
A2R	3.6
A2L	2.36
A2M	2.46
A2S	3.15
A2V	2.15
A2I	1.64
A2N	3.75
Q18K	2.08
Q18H	2.19
Q18L	2
Q18C	1.84
Q18T	2.13
Q18D	2.98
Q18S	2.29
Q18R	1.88
Q18E	2.87
Q18N	2.73
Q18G	2.82
Q18P	2.01
Q18A	1.87
Q18Y	2.26

Variant	protein stability index
Q18M	2
Q18F	2.15
Q18W	2.21
Q18I	2.02
Q18V	2.49
Q6V	1.94
Q6L	2.03
Q6N	2.28
Q6P	2.26
Q6W	2.89
Q6Y	1.95
Q6I	1.57
Q6F	2.14
Q6A	2.18
Q6K	2.05
Q6E	3.19
Q6C	1.61
Q6H	2.02
Q6G	2.04
Q6T	2.42
Q6D	3.3
Q6S	2.42
Q6R	1.69
Q6M	1.54

Variant	protein stability index
E3N	2.08
E3L	1.43
E3T	1.98
E3S	1.82
E3F	1.94
E3G	1.85
E3A	1.85
E3Y	1.85
E3R	2.09
E3V	2.31
E3P	2.27
E3H	1.93
E3K	2.17
E3D	2.19
E3C	2.21
E3W	1.66
E3I	1.63
E3M	1.97
E3Q	2.02
D14A	1.46
D14R	1.7
D14P	1.88
D14C	1.86
D14H	1.97

Variant	protein stability index
D14L	1.62
D14K	1.96
D14T	1.94
D14S	2.09
D14N	2.13
D14I	2.02
D14E	2.05
D14G	2
D14M	1.75
D14Y	2.56
D14F	2.04
D14Q	1.91
D14V	1.78
G5V	2.21
G5T	2.28
G5F	2.5
G5Y	2.22
G5L	1.57
G5M	1.98
G5N	2.47
G5E	3.81
G5H	2.52
G5P	2.46
G5C	2.24

Variant	protein stability index
G5K	2.02
G5R	2.02
G5D	3.32
G5Q	2.53
G5S	2.14
G5A	2.14
G5W	3.46
G5I	1.72
V9M	1.98
V9Y	2.02
V9R	2.17
V9N	3.02
V9H	2.69
V9G	2.27
V9I	2.62
V9C	2.42
V9A	2.36
V9T	3.12
V9W	2.5
V9F	1.67
V9D	4.25
V9K	2.88
V9P	2.41
V9L	1.98

Variant	protein stability index
V9S	3.34
V9Q	2.71
V9E	3.64
F19M	2.43
F19K	2.97
F19I	2.28
F19H	3.16
F19L	2.36
F19E	3.01
F19A	2.19
F19G	2.38
F19C	1.96
F19D	2.87
C7A	3.2
C7P	3.45
C7H	1.91
C7Q	2.36
C7K	2.23
C7V	2.32
C7E	3.9
C7I	1.97
C7L	1.69
C7D	3.04
C7G	2.63

Variant	protein stability index
C7F	1.78
C7M	2.23
C7S	1.87
C7N	1.89
C7T	2.87
C7R	2.57
C7Y	2.12
C7W	2.5
T13E	3.45
T13G	2.32
T13Q	2.57
T13R	2.22
T13D	2.8
T13I	1.81
T13K	2
T13W	1.89
T13H	2.2
T13M	2.11
T13N	2.5
T13A	2.49
T13C	1.97
T13Y	1.62
T13S	2.37
T13L	1.92

Variant	protein stability index
T13F	1.33
T13P	2.17
T13V	2.2
S8K	2.04
S8I	1.75
S8W	3.17
S8R	1.9
S8L	1.62
S8Y	1.59
S8E	3.17
S8H	1.83
S8V	2
S8P	2.04
S8T	2.28
S8G	1.93
S8F	2.53
S8M	1.66
S8A	1.87
S8D	3.06
S8N	2.57
S8Q	2.08
S8C	1.64
